# Experimental data as given in patent US10188706B2, “Plasminogen activator mutants as anti-fibrinolytic agents” (HADASIT MEDICAL RESEARCH SERVICES & DEVELOPMENT LIMITED, priority 2012, dated 2019).
# Entries after “also recorded” stand apart in the source; their conditions may differ.
# B1: tPA-S^481A: catalytically inactive human tPA variant, Ser481 substituted to Ala; SEQ ID NO. 1 (SEQ ID NO. 12 with N-terminal RS) (protein, listed as Homo sapiens)
# chain: GARSYQVICRDEKTQMIYQQHQSWLRPVLRSNRVEYCWCNSGRAQCHSVPVKSCSEPRCFNGGTCQQALYFSDFVCQCPEGFAGKCCEIDTRATCYEDQGISYRGTWSTAESGAECTNWNSSALAQKPYSGRRPDAIRLGLGNHNYCRNPDRDSKPWCYVFKAGKYSSEFCSTPACSEGNSDCYFGNGSAYRGTHSLTESGASCLPWNSMILIGKVYTAQNPSAQALGLGKHNYCRNPDGDAKPWCHVLKNRRLTWEYCDVPSCSTCGLRQYSQPQFRIKGGLFADIASHPWQAAIFAKHRRSPGERFLCGGILISSCWILSAAHCFQERFPPHHLTVILGRTYRVVPGEEEQKFEVEKYIVHKEFDDDTYDNDIALLQLKSDSSRCAQESSVVRTVCLPPADLQLPDWTECELSGYGKHEALSPFYSERLKEAHVRLYPSSRCTSQHLLNRTVTDNMLCAGDTRSGGPQANLHDACQGDAGGPLVCLNDGRMTLVGIISWGLGCGQKDVPGVYTKVTNYLDWIRDNMRP
# Assays:
# [1] = target: reteplase (Homo sapiens, UniProt P00750); assay: Fibrinolysis assay in human plasma derived clots, lysis by reteplase; format: biochemical; conditions: reteplase 20 nM, mutant 10 nM, FIG. 2B
# Experimental: (§1) Fibrinolysis Assay in Human Plasma Derived Clots
# (§2) Clots were formed by placing human plasma (200 μL) in 16-mm diameter tissue culture wells flowed by adding thrombin (0.4 U/mL final concentration). Fibrinolysis was measured as described in Higazi A A et al., Blood (1998), 92(6):2075-83). Briefly, 10 μL tPA or uPA were placed over the plasma clots for 2 hours at 37° C., photographed and the diameter of the wholes were determined.
# [2] = tested on: tPA; assay: Plasminogen activator activity, chromogenic assay without fibrin, activation by tPA; format: biochemical, human; conditions: FIG. 2D; for plasminogen activation by tPA in the absence of fibrin, in the presence of TA: mutant 100 nM added together with TA
# Experimental: (§3) Plasminogen Activator Activity
# (§4) Plasminogen activator activity was determined by adding tPA (50 nM) or uPA (20 nM), to a reaction mixture containing Glu-plasminogen and the plasmin chromogenic substrate Spectrazyme PL (100 μM) in phosphate-buffered saline (PBS) at 37° C., and the light absorbance at 405 nm was measured continuously over time. The initial velocities of plasmin generation at the different conditions were calculated from the change in the A405 nm over time. The initial velocity of the reaction at each plasminogen concentration was obtained by calculating the change in the rate of A405 over different time intervals and the results were expressed as the change in optical density (ΔOD) per minute, which represents the slope of the initial velocity of plasminogen activation (Higazi A et al., J Biol Chem. (1995), 270(29):17375-80).
# [3] = tested on: WT-tPA; assay: Fibrinolysis assay in human plasma derived clots, lysis by WT-tPA; format: biochemical
# Experimental: as §1, §2
# [4] = tested on: mice treated with Coumadin and subjected to CHI; assay: Closed head injury (CHI) in mice anticoagulated with warfarin (Coumadin); format: in vivo, mouse; conditions: WT mice, INR 2.5; tPA-S481A 1 mg/kg immediately after TBI; Hgb at 2 or 8 hrs; FIG. 6C
# From the text: (§5) Closed Head Injury (CHI) Model
# (§6) Head trauma was induced by using a modified weight-drop device, as previously described (Chen Y. et al. (1996) J. Neurotrauma, 13:557-568). Briefly, after induction of ether anesthesia, a midline longitudinal incision was made, the skin was retracted and the skull was exposed. The left anterior frontal area was identified and a Teflon tipped cone (2-mm diameter) was placed 1 mm lateral to the midline, in the midcoronal plane. The head was held in place manually and a 75-g weight was dropped on the cone from a height of 18 cm, resulting in focal injury to the left hemisphere. After trauma, the mice received supporting oxygenation with 95% 02 for no longer than 2 min and were then returned to their cages. In sham controls only anesthesia and skin incision were carried out.
# [5] = target: T1, uPA (Homo sapiens, UniProt P00749); assay: Plasminogen activator activity, chromogenic assay without fibrin, activation by uPA; format: biochemical; conditions: FIG. 2D; for plasminogen activation by uPA in the absence of fibrin, in the presence of TA: mutant 100 nM added together with TA
# T1 construct: Single-chain urokinase (uPA) was purified, characterized as previously reported; made in house
# Experimental: as §3, §4
# [6] = tested on: NMDA-Rs; assay: Activation of NMDA-Rs by WT-tPA
# [7] = tested on: WT mice subjected to CHI; assay: Closed head injury (CHI) model of TBI in WT mice; format: in vivo, mouse
# Experimental: Eight to twelve weeks old C57 mice obtained from Harlan, Israel. Mice were administered standard laboratory chow and water ad libitum, and kept in controlled temperature and light conditions. Animal experiments were carried out according to the guidelines of the Hebrew University-Institutional Committee for Care and Use of Laboratory Animals, and with the committee's approval.
# as §5, §6
# [8] = target: T1, uPA; assay: Fibrinolysis assay in clots from fresh whole human blood monitored by thromboelastography (TEG), lysis by uPA; format: biochemical; conditions: uPA 10 nM; 50 or 500 nM tPA-S481A; FIG. 2C
# Experimental: (§7) Fibrinolysis Assay in Blood Clots Derived from Fresh Whole Human Blood
# (§8) Clot viscoelastic properties were assessed by thromboelastography (TEG®, Haemoscope) and rotational thromboelastometry (ROTEM®, Pentapharm). Both systems use a vertical pin within a cup that contains the WB sample. In TEG®, the cup oscillates and the pin is stationary whereas in ROTEM®, the cup is stationary while the pin oscillates. As a clot forms between the cup and the pin, the reduction in transmitted rotation from the cup to the pin (TEG®) or impedance to the oscillatory movement of the pin (ROTEM®) is detected and a trace is generated.
# [9] = target: T2, WT tPA (Homo sapiens, UniProt P00750); assay: Fibrinolysis assay in clots from fresh whole human blood monitored by thromboelastography (TEG), lysis by WT tPA; format: biochemical; conditions: WT tPA 10 nM; 50 or 500 nM tPA-S481A; FIG. 2C
# T2 construct: purchased Genentech (South San Francisco, Calif.)
# Experimental: as §7, §8
# [10] = target: T1, uPA; assay: Fibrinolysis assay in human plasma derived clots, lysis by uPA; format: biochemical; conditions: uPA 50 nM; mutant 50 nM; FIG. 2A, 2B
# Experimental: as §1, §2
# [11] = tested on: tPA-/- and uPA-/- mice subjected to CHI; assay: Closed head injury (CHI) model in tPA-/- and uPA-/- mice; format: in vivo, mouse; conditions: WT-tPA or WT-uPA 5 mg/kg plus equimolar dose of mutant
# From the text: as §5, §6
# [12] = target: T3, plasminogen (Homo sapiens, UniProt P00747); assay: Ser481-Ala tPA/plasminogen protein interaction assay by co-immunoprecipitation; format: binding
# T3 construct: Glu-plasminogen was prepared from human plasma; from tissue; host or cells: human plasma
# Experimental: Ser^481-Ala tPA/Plasminogen Protein Interaction Assay by Co-Immunoprecipitation
# Human Ser^481-Ala tPA and plasminogen, each at 100 nM final concentration in absence or presence of 1 μM uPA or fibrin degradation products, were incubated with goat polyclonal antibody to plasminogen and incubated with Protein A agarose. The protein A agarose beads were separated by centrifugation, washed, and boiled for 5 min. The beads were precipitated by centrifugation and the samples were run on NuPAGE 4-12%. As a control, 80 ng of human Ser^481-Ala tPA was loaded on the gel. The proteins from the gel were transferred onto a PVDF membrane. The membrane was blocked in milk/PBST before incubation for 1 hr with mouse monoclonal antibody to tPA. Subsequently it was washed, incubated with goat anti-mouse IgG-HRP conjugate, washed again, and detected with ECL.
# Chain of WT-tPA (P00750 36-562): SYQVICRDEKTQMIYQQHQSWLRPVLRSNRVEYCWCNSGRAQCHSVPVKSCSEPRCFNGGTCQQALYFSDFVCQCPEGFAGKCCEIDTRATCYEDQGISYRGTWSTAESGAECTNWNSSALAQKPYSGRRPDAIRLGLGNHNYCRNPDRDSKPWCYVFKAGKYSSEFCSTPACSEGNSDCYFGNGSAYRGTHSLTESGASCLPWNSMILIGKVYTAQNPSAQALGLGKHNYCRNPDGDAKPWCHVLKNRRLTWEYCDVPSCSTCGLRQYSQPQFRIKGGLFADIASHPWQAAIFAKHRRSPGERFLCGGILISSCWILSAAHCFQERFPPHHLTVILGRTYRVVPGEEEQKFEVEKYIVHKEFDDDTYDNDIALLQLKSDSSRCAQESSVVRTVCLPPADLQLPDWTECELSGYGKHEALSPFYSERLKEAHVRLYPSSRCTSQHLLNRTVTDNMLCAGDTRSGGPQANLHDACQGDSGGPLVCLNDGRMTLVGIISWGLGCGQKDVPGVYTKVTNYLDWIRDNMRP
# T2 sequence (P00750 36-562): as above
molecule,measurement,setting,value
B1,clot lysis induced by reteplase,[1],inhibit the clot lysis induced by reteplase
same,clot lysis induced by reteplase,[1]; listed as tPA^Ser481Ala,inhibit the fibrinolysis
same,"plasminogen activation by tPA in the absence of fibrin, in the presence of TA",[2],inhibited the plasminogen activation induced by tPA
same,"plasminogen activation by tPA in the absence of fibrin, in the presence of TA",[2]; listed as tPA^Ser481Ala,inhibit plasminogen activation
same,plasminogen activation by tPA in the absence of fibrin (change in OD per minute),"[2]; plasminogen 500 nM, WT-tPA 50 nM, mutants 100 nM or TA 200 nM alone",Neither tPA-S^481A nor tPA-S^481A-DS inhibited; also recorded: had no effect
same,potency as inhibitor of fibrinolysis compared with TA,"[3]; TA tested at its maximal inhibitory concentration, FIG. 2B",more potent inhibitors of fibrinolysis than TA
same,lysis of human plasma derived clots by WT-tPA,"[3]; WT-tPA 20 nM, mutant 50 nM, FIG. 2A, 2B",inhibited lysis
same,post-traumatic intracerebral hemorrhage (brain hemoglobin) in warfarin-anticoagulated mice,[4],almost totally inhibited
same,"plasminogen activation by uPA in the absence of fibrin, in the presence of TA",[5],inhibited the activation of plasminogen by uPA
same,"plasminogen activation by uPA in the absence of fibrin, in the presence of TA",[5]; listed as tPA^Ser481Ala,inhibit plasminogen activation
same,plasminogen activation by uPA in the absence of fibrin (change in OD per minute),"[5]; plasminogen 500 nM, uPA 20 nM, mutants 100 nM or TA 200 nM alone",Neither tPA-S^481A nor tPA-S^481A-DS inhibited; also recorded: had no effect
same,activation of NMDA-Rs by WT-tPA,[6],inhibited activation of NMDA-Rs by WT-tPA
same,intracerebral hemorrhage increased by injected WT-tPA post CHI,[7]; WT mice given WT-tPA 5 mg/kg immediately after CHI plus equimolar mutant,could be inhibited
same,plasma levels of d-Dimers post CHI,"[7]; WT mice, 1 mg/kg IV, measured 2 hours after CHI, FIG. 4A, 1 mg/kg",significantly attenuated the increase in d-Dimers; also recorded: inhibited the formation of d-Dimers
same,platelet counts / thrombocytopenia post CHI,"[7]; WT mice, 1 mg/kg IV, measured 2 hours after CHI, FIG. 4B, 1 mg/kg",prevented the development of thrombocytopenia; also recorded: inhibited the development of thrombocytopenia
same,CSF fibrinolytic activity post CHI,"[7]; WT mice, IV after CHI, CSF obtained 2 hours after CHI, tested on plasma derived clots",inhibited CSF fibrinolytic activity
same,"intracerebral hemorrhage (MRI, extravasation of Hgb) post CHI","[7]; WT mice, IV immediately after or 2 hrs after CHI, Hgb at 2 or 8 hrs, MRI at 24 hrs",significantly attenuated the expansion of intracerebral hemorrhage; also recorded: inhibited
same,inhibition of intracerebral hemorrhage compared with combination of TA and aprotinin,"[7]; combination in optimal concentrations, FIG. 3B",comparable to the inhibition induced by a combination of TA and aprotinin
same,"neuroprotection (neurological severity score, NSS)","[7]; given 2 hrs after CHI, FIG. 5",the difference in neuroprotection provided by the two tPA variants vanished
same,"neuroprotection (neurological severity score, NSS, 24 hours after CHI)","[7]; given IV immediately after CHI, 1 mg/kg, FIG. 5",exerts neuroprotection
same,potency as inhibitor of intracerebral hemorrhage compared with TA or aprotinin,"[7]; optimal concentrations of TA or aprotinin, FIG. 3B",more potent inhibitors of intracerebral hemorrhage than optimal concentrations of TA or aprotinin
same,"lysis of clots from fresh whole human blood monitored by TEG, by uPA",[8],inhibited lysis
same,"lysis of clots from fresh whole human blood monitored by TEG, by WT tPA",[9],inhibited lysis
same,lysis of human plasma derived clots by uPA,[10],inhibited lysis
same,expansion of post traumatic ICH in knock-out mice given exogenous WT-tPA or WT-uPA,[11],inhibited the expansion of the post traumatic ICH
same,binding to plasminogen (complex formation),"[12]; in the absence of fibrin, 100 nM each",no complexes were formed
same,binding to plasminogen (complex formation),"[12]; in the presence of fibrin, 100 nM each, immunoprecipitated with anti-plasminogen, detected with anti-tPA",binds to plasminogen only in the presence of fibrin; also recorded: formed a stable complex
same,binding to plasminogen (complex formation),[12]; with fibrin in the presence of 1 μM uPA,inhibited by uPA
